Data reported in the RNAGym collection of RNA variant scans (doi:10.7554/elife.80360).

B1: CPEB3 Ribozyme (parent)
chain: GGGGGCCACAGCAGAAGCGUUCACGUCGCGGCCCCUGUCAGAUUCUGGUGAAUCUGCGAAUUCUGCUGU

Variants of: B1
Experiment: self-cleavage, relative activity (ratio to wild type); higher = more cleavage; co-transcriptional

Row | Variant | self-cleavage
1 | GGGGGCCACAGCAGAAGCGUUCAGGUCGCGGCCCCUGUGAGAUUCUGGUGAAUCUGCGAAUUCUGCUGU [C24G C39G] | 0.324
2 | GGGGGCCACAGCAGAAGCGUUCAGGUCGCGGCCCCUGUAAGAUUCUGGUGAAUCUGCGAAUUCUGCUGU [C24G C39A] | 0.214
3 | GGGGGCCACAGCAGAAGCGUUCAGGUCGCGGCCCCUGACAGAUUCUGGUGAAUCUGCGAAUUCUGCUGU [C24G U38A] | 0.177
4 | GGGGGCCACAGCAGAAGCGUUCAGUUCGCGGCCCCUGUCAGAUUCUGGUGAAUCUGCGAAUUCUGCUGU [C24G G25U] | 0.104
5 | GGGGGCCACAGCAGAAGCGUUCAGGUCGCGGCCCCUGUCAGAUUCUGGUGAAUCUCCGAAUUCUGCUGU [C24G G56C] | 0.245
6 | GGGGGCCACAGCAGAAGCGUUCAGGUCGCGGCCCCUGUCAGAUUCUGGUGAUUCUGCGAAUUCUGCUGU [C24G A52U] | 0.409
7 | GGGGGCCACAGCAGAAGCGUUCAGGUCGCGGCCCCUGUCAGAUUCUGGUGACUCUGCGAAUUCUGCUGU [C24G A52C] | 0.391
8 | GGGGGCCACAGCAGAAGCGUUCAGGUCGCGGCCCCUGUCAGAUUCUGGUGAAUCCGCGAAUUCUGCUGU [C24G U55C] | 0.292
9 | GGGGGCCACAGCAGAAGCGUUCAGGUCGCGGCCCCUGUCAGAUUCUGGUGAAUCUGCGAGUUCUGCUGU [C24G A60G] | 0.264
10 | GGGGGCCACAGCAGAAGCGUUCAGGUCGCGGCCCCUGUCAGAUGCUGGUGAAUCUGCGAAUUCUGCUGU [C24G U44G] | 0.308
11 | GGGGGCCACAGCAGAAGCGUUCAGGUCGGGGCCCCUGUCAGAUUCUGGUGAAUCUGCGAAUUCUGCUGU [C24G C29G] | 0.194
12 | GGGGGCCACAGCAGAAGCGUUCAGGUCGUGGCCCCUGUCAGAUUCUGGUGAAUCUGCGAAUUCUGCUGU [C24G C29U] | 0.0935
13 | GGGGGCCACAGCAGAAGCGUUCAGGUCGCGGCCCCUGUCAGAUUCUCGUGAAUCUGCGAAUUCUGCUGU [C24G G47C] | 0.502
14 | GGGGGCCACAGCAGAAGCGUUCAGGUCGCGGCCCCUGUCAGAUUCUGGUGUAUCUGCGAAUUCUGCUGU [C24G A51U] | 0.353
15 | GGGGGCCACAGCAGAAGCGUUCAGGUCGCGGCACCUGUCAGAUUCUGGUGAAUCUGCGAAUUCUGCUGU [C24G C33A] | 0.206
16 | GGGGGCCACAGCAGAAGCGUUCAGGUCGCGGCGCCUGUCAGAUUCUGGUGAAUCUGCGAAUUCUGCUGU [C24G C33G] | 0.201
17 | GGGGGCCACAGCAGAAGCGUUCAGGUCGCGGCCCCUGUCAUAUUCUGGUGAAUCUGCGAAUUCUGCUGU [C24G G41U] | 0.207
18 | GGGGGCCACAGCAGAAGCGUUCAGGUCGCGGCCCCUGUCAAAUUCUGGUGAAUCUGCGAAUUCUGCUGU [C24G G41A] | 0.247
19 | GGGGGCCACAGCAGAAGCGUUCAGGUCGCGGCCCCUGUCAGAUUCUGGGGAAUCUGCGAAUUCUGCUGU [C24G U49G] | 0.565
20 | GGGGGCCACAGCAGAAGCGUUCAGGUCGCGGCCCCUGUCAGAUUCUGGAGAAUCUGCGAAUUCUGCUGU [C24G U49A] | 0.59

Row | Variant | self-cleavage
21 | GGGGGCCACAGCAGAAGCGUUCAGGUCGCGGCCCAUGUCAGAUUCUGGUGAAUCUGCGAAUUCUGCUGU [C24G C35A] | 0.167
22 | GGGGGCCACAGCAGAAGCGUUCAGGUCGCGGACCCUGUCAGAUUCUGGUGAAUCUGCGAAUUCUGCUGU [C24G C32A] | 0.224
23 | GGGGGCCACAGCAGAAGCGUUCAGGUCGCGGCCCCUGUCUGAUUCUGGUGAAUCUGCGAAUUCUGCUGU [C24G A40U] | 0.14
24 | GGGGGCCACAGCAGAAGCGUUCAGGUCGCGUCCCCUGUCAGAUUCUGGUGAAUCUGCGAAUUCUGCUGU [C24G G31U] | 0.215
25 | GGGGGCCACAGCAGAAGCGUUCAGGUCGCGGCCCCUGUCAGAGUCUGGUGAAUCUGCGAAUUCUGCUGU [C24G U43G] | 0.249
26 | GGGGGCCACAGCAGAAGCGUUCAGGGCGCGGCCCCUGUCAGAUUCUGGUGAAUCUGCGAAUUCUGCUGU [C24G U26G] | 0.344
27 | GGGGGCCACAGCAGAAGCGUUCAGGACGCGGCCCCUGUCAGAUUCUGGUGAAUCUGCGAAUUCUGCUGU [C24G U26A] | 0.206
28 | GGGGGCCACAGCAGAAGCGUUCAGGUCGCGGCCCCUGUCAGAUUCUGGUGAAUCUGCGAAUUCUGUUGU [C24G C66U] | 0.502
29 | GGGGGCCACAGCAGAAGCGUUCAGGUCGCGGCCCCUGUCAGCUUCUGGUGAAUCUGCGAAUUCUGCUGU [C24G A42C] | 0.385
30 | GGGGGCCACAGCAGAAGCGUUCAGGUCGCGGCCCCUGUCAGAUUCUGGUGAAUUUGCGAAUUCUGCUGU [C24G C54U] | 0.602
31 | GGGGGCCACAGCAGAAGCGUUCAGGUCGCGGCCCCUGUCAGAUUCUGGUGAAUCUGCUAAUUCUGCUGU [C24G G58U] | 0.387
32 | GGGGGCCACAGCAGAAGCGUUCAGGUCGCGGCCCCUGUCAGAUUCUGGUGAAUCUGCGAAUUCUUCUGU [C24G G65U] | 0.243
33 | GGGGGCCACAGCAGAAGCGUUCAGGUCGCGGCCCCUGUCAGAUUCUGGUGAAUCUGCGAAUUCUCCUGU [C24G G65C] | 0.242
34 | GGGGGCCACAGCAGAAGCGUUCAGGUCGCGGCCCCUGUCAGAUUCUGCUGAAUCUGCGAAUUCUGCUGU [C24G G48C] | 0.449
35 | GGGGGCCACAGCAGAAGCGUUCAGGUCGCGGCCCCUGUCAGAUUCUGAUGAAUCUGCGAAUUCUGCUGU [C24G G48A] | 0.554
36 | GGGGGCCACAGCAGAAGCGUUCAGGUCUCGGCCCCUGUCAGAUUCUGGUGAAUCUGCGAAUUCUGCUGU [C24G G28U] | 0.13
37 | GGGGGCCACAGCAGAAGCGUUCAGGUCCCGGCCCCUGUCAGAUUCUGGUGAAUCUGCGAAUUCUGCUGU [C24G G28C] | 0.224
38 | GGGGGCCACAGCAGAAGCGUUCAGGUCGCGGCCCCUUUCAGAUUCUGGUGAAUCUGCGAAUUCUGCUGU [C24G G37U] | 0.278
39 | GGGGGCCACAGCAGAAGCGUUCAGGUCGCGGCCCCUGUCAGAUUCUGGUGAAUCUGCGAAUUCUGCUCU [C24G G68C] | 0.578
